# Biological target: T1, HLA-A*03:01 (human)
# T1 construct: also called peptide-receptive MHC molecules
# Assay: UV-exchange b2m ELISA; exchange-yield grade
# Procedure, shortened: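 UV-exchange products diluted 100-fold, captured on streptavidin-coated wells, 1 h 37 °C; HRP anti-β2m 2 ug/ml, 1 h 37 °C; TMB, A450. Standards: refolded HLA-A*02:01/MLA-001, 15-500 ng/ml. Yield = β2m signal of stabilised MHC.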
row,Binder,peptide exchange yield
1,RMFADDLHNLNK,50 to 75%
2,RQPERTILRPR,20 to 50%
3,RVNAIPFTY,50 to 75%
4,KTFPASTVF,10 to 20%
5,STTFPTLTK,20 to 50%
6,VSKTTGMEF,10 to 20%
7,TTALKTTSR,10 to 20%
8,NLSSITHER,20 to 50%
9,SVSSETTKIKR,20 to 50%
10,SVSGVKTTF,20 to 50%
11,RAKELEATF,10 to 20%
12,IVQEPTEEK,20 to 50%
13,KSLIKSWKK,20 to 50%
14,GTVNPTVGK,20 to 50%
15,TVAPPQGVVK,20 to 50%
16,RRIHTGEKPYK,20 to 50%
17,RMASPVNVK,> 75%
18,AVRKPIVLK,50 to 75%
19,SLKERNPLK,20 to 50%
20,GMMKGGIRK,50 to 75%
21,SMYYPLQLK,50 to 75%
22,GTSPPSVEK,20 to 50%
23,RISEYLLEK,20 to 50%
24,VLYGPAGLGK,50 to 75%
25,KTYETNLEIKK,50 to 75%
26,ALEVAHRLK,20 to 50%
27,KLQPAQTAAK,20 to 50%
28,VLLGSLFSRK,20 to 50%
29,VVLLGSLFSRK,20 to 50%
30,AVAPPTPASK,20 to 50%
